Assay results taken from article PMC3883677, “The Quaternary Structure of the Recombinant Bovine Odorant-Binding Protein Is Modulated by Chemical Denaturants” (PLoS ONE, 2014).

Molecular target: the molecule itself
Experiment: SEC; Superdex-75 PC 3.2/30, calibrated with mass standards; 20 mM Na-phosphate pH 7.8, no GdnHCl; protein 0.1-0.2 mg/ml; monomer to dimer

B1: recombinant bovine odorant-binding protein (natural protein)
chain: AQEEEAEQNLSELSGPWRTVYIGSTNPEKIQENGPFRTYFRELVFDDEKGTVDFYFSVKRDGKWKNVHVKATKQDDGTYVADYEGQNVFKIVSLSRTHLVAHNINVDKHGQTTELTELFVKLNVEDEDLEKFWKLTEDKGIDKKNVVNFLENEDHPHPE
notes: PDB 1OBP is the cited crystal structure of the native tissue-extracted bOBP dimer (domain-swapped); also called bOBP; recombinant bOBP; source: E. coli BL21(DE3), plasmid pT7-7-bOBP, purified (Ni-agarose, HisGraviTrap)
  stoichiometry N: 2
